Reference: US20220275089A1 (AKESO PHARMACEUTICALS, published 2022)

T1: FcγRIIb (UniProt P31994 43-217, limits assumed)
T1 construct: also called CD32b
T1 sequence (looked up): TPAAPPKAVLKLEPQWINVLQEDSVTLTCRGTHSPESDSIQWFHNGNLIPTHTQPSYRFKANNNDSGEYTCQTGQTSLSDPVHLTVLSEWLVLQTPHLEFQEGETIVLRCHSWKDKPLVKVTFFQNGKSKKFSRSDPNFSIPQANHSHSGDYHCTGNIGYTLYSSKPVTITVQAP

T2: FcγRIIa_H131 (UniProt P12318 34-218)
T2 construct: H131 polymorphic form
T2 sequence (looked up): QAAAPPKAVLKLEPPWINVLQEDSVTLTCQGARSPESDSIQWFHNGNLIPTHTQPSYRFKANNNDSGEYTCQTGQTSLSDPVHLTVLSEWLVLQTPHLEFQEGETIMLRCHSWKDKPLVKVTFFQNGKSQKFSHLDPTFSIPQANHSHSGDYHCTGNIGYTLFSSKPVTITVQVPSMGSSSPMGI


Legend:
[1] = molecular target: T3, C1q (UniProt P02745 23-245; P02746 28-253; P02747 29-245); experiment: BLI (Fortebio Octet), antibody on FAB2G sensor, C1q 1.25-20 nM, 1:1 fit
T3 construct: also called serum complement C1q; complement C1q
Experimental: (§1) 50 μg/mL antibody was immobilized on the FAB2G sensor at an immobilization height of about […]. […] The antigen and antibody were dissociated in the buffer for 60 s. The sensor was refreshed 4 times in 10 mM glycine pH 1.7, each for 5 s. The shaking speed of the sample plate was 1000 rpm, the temperature was 30° C. and the frequency was 0.6 Hz. The data were analyzed by 1:1 model fitting to obtain affinity constants. The data acquisition software was Fortebio Data Acquisition 7.0, and the data analysis software was Fortebio Data Analysis 7.0.

[2] = molecular target: T1, FcγRIIb; experiment: BLI (Fortebio Octet), FcγRIIb on NTA sensor, antibody 12.5-200 nM, 1:1 fit
Experimental: (§2) 5 μg/mL FcγRIIb was immobilized on the NTA sensor at an immobilization height of about 1.0 nm. […] The antibody was dissociated in the buffer for 60 s. The sensor was refreshed in 10 mM glycine pH 1.7 and 10 nM nickel sulfate. The temperature was 30° C. and the frequency was 0.6 Hz. The data were analyzed by 1:1 model fitting to obtain affinity constants.

[3] = molecular target: T4, FcγRI (UniProt P12314 16-288, limits assumed); experiment: BLI (Fortebio Octet), FcγRI on HIS1K sensor, antibody 3.12-50 nM, 1:1 fit
T4 construct: construct not described; also called CD64; FcγR1
Experimental: (§3) A 1 μg/mL FcγRI solution (from Sinobio) was added to the HIS1K sensor to immobilize the FcγRI on the sensor surface for 50 s. […] The sensor with immobilized antigen was equilibrated in the buffer for 60 s, and then the binding of the immobilized FcγRI on the sensor to the antibodies was determined for 120 s; the dissociation of FcγRI from the antibodies was determined in 120 s. The temperature was 30° C. and the frequency was 0.3 Hz. The data were fitted and analyzed with a 1:1 model to obtain the affinity constants to FcγRI for the antibodies.

[4] = molecular target: T5, FcγRIIIa_F158 (UniProt P08637 17-208); experiment: BLI (Fortebio Octet), FcγRIIIa_F158 immobilized on HIS1K sensor, antibody in solution at 31.25-500 nM
T5 construct: F158 polymorphic form
Experimental: (§4) 5 μg/mL FcγRIIIa_F158 was immobilized on the HIS1K sensor for 120 s. […] The antibody was dissociated in the buffer for 60 s. The sensor was refreshed 4 times in 10 mM glycine pH 1.5, each for 5 s. The temperature was 30° C. and the frequency was 0.3 Hz. The data were analyzed by 1:1 model fitting to obtain affinity constants.

[5] = molecular target: T6, FcγRIIIa_V158 (UniProt P08637 17-208); experiment: BLI (Fortebio Octet), FcγRIIIa_V158 immobilized on HIS1K sensor, antibody in solution at 31.25-500 nM
T6 construct: V158 polymorphic form (mature numbering)
Experimental: as §4, with “FcγRIIIa_V158” for “FcγRIIIa_F158”

[6] = molecular target: T4, FcγRI; experiment: BLI (Fortebio Octet), FcγRI immobilized on HIS1K sensor, antibody in solution at 3.12-50 nM
Experimental: as §3

[7] = molecular target: T2, FcγRIIa_H131; experiment: BLI (Fortebio Octet), FcγRIIa_H131 immobilized on NTA sensor, antibody in solution at 12.5-200 nM
Experimental: as §2, with “FcγRIIa_H131” for “FcγRIIb”

[8] = molecular target: T3, C1q; experiment: BLI (Fortebio Octet), antibody immobilized on FAB2G sensor, C1q in solution at 1.25-20 nM
Experimental: as §1

[9] = molecular target: T1, FcγRIIb; experiment: BLI (Fortebio Octet), FcγRIIb immobilized on NTA sensor, antibody in solution at 12.5-200 nM
Experimental: as §2

T3 sequence (P02745 23-245 limits assumed, chain 1 of 3): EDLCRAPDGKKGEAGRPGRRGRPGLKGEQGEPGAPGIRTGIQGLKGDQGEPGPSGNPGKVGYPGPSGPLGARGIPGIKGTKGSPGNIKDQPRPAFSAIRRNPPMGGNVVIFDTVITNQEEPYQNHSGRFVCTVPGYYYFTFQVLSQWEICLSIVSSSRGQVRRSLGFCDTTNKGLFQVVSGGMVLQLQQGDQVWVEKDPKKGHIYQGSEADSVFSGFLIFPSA
T3 sequence (P02746 28-253 limits assumed, chain 2 of 3): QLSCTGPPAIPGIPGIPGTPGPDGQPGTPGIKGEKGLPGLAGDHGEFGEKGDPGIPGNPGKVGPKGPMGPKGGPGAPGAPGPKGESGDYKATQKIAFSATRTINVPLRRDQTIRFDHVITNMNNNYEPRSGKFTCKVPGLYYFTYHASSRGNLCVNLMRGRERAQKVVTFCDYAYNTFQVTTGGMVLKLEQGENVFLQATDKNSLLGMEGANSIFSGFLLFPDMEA
T3 sequence (P02747 29-245 limits assumed, chain 3 of 3): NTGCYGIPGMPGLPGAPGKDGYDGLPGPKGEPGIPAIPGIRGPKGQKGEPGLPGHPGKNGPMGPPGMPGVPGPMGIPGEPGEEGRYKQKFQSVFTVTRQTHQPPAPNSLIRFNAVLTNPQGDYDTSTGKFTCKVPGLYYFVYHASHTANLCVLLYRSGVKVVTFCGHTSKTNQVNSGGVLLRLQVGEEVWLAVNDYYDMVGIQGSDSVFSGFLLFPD
T4 sequence (P12314 16-288 limits assumed): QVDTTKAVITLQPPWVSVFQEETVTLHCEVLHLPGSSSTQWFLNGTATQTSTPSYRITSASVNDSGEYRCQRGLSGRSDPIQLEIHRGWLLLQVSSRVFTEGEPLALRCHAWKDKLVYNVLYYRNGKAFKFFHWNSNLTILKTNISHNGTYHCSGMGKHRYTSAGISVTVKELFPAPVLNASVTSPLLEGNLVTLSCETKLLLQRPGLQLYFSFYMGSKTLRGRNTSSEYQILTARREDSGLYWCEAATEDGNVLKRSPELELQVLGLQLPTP
T6 sequence (P08637 17-208 F176V limits assumed): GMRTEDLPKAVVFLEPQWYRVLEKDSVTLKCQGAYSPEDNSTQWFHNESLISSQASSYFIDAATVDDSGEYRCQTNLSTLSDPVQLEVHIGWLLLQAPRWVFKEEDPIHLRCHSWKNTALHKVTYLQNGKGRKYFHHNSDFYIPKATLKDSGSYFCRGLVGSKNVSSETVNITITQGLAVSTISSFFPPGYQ
T5 sequence (P08637 17-208 limits assumed): as the sequence (P08637 17-208 F176V limits assumed) above, with V160F counted along it

Binder	Kd [1]	koff [1]	kon [1]	Kd [2]	Kd [3]	binding result [4]	binding result [5]	binding result [6]	binding result [7]	binding result [8]	binding result [9]
5C10H2L2-IgG1mt (antibody) chain 1: not shown chain 2: EIVLTQSPDTLSVTPKEKVTLTCRASQSIGTNIHWFQQKPGQSPKLLIKYASESISGVPSRFSGSGSGTDFTLTINSVEAEDAATYYCQQSNSWPYTFGQGTKLEIKRTVAAPSVFIFPPSDEQLKSGTASVVCLLNNFYPREAKVQWKVDNALQSGNSQESVTEQDSKDSTYSLSSTLTLSKADYEKHKVYACEVTHQGLSSPVTKSFNRGEC	4.43 nM	0.0105 s⁻¹	2.38e+06 M⁻¹ s⁻¹								
BiAb004(hG1WT) (bispecific antibody, human IgG1, kappa, IgG-scFv (Morrison format); also called BiAb004(M); BiAh004(M)) heavy: not shown light: DIQMTQSPSSMSASVGDRVTFTCRASQDINTYLSWFQQKPGKSPKTLIYRANRLVSGVPSRFSGSGSGQDYTLTISSLQPEDMATYYCLQYDEFPLTFGAGTKLELKRTVAAPSVFIFPPSDEQLKSGTASVVCLLNNFYPREAKVQWKVDNALQSGNSQESVTEQDSKDSTYSLSSTLTLSKADYEKHKVYACEVTHQGLSSPVTKSFNRGEC	2.53 nM			56.1 nM	5.92 nM						
BiAb004(hG1TM) (bispecific antibody, human IgG1, kappa, IgG-scFv (Morrison format), anti-PD-1 IgG1 with an anti-CTLA4 scFv on the C terminus of each heavy chain) heavy: not shown light: DIQMTQSPSSMSASVGDRVTFTCRASQDINTYLSWFQQKPGKSPKTLIYRANRLVSGVPSRFSGSGSGQDYTLTISSLQPEDMATYYCLQYDEFPLTFGAGTKLELKRTVAAPSVFIFPPSDEQLKSGTASVVCLLNNFYPREAKVQWKVDNALQSGNSQESVTEQDSKDSTYSLSSTLTLSKADYEKHKVYACEVTHQGLSSPVTKSFNRGEC						no binding (tested: 500 nM)	no binding (tested: 500 nM)	no binding (tested: 50 nM)	no binding (tested: 200 nM)	no binding (tested: 20 nM)	no binding (tested: 200 nM)
